Experiments:
S. aureus NRS 385 (MRSA) = test: Plate lysis, susceptibility of strains to 2638A (Table 1); type: cell-based
Procedure: (§1) Purified proteins for each construct were diluted in sterile nickel column elution buffer, and 6 μL of lysostaphin (11 μg) or the constructs (0.2 nmoles or ˜11 μg for the repaired construct 2638A 1-180Mut-486) was spotted onto a freshly spread lawn of S. aureus strain NRS119 (SA LinR #12; linezolid resistant) growing cells that had air dried for 30 min on tryptic soy agar (TSA) plates. L=[…] Lysostaphin (Sigma); Spot 1=11 μg; all other constructs are 0.2 nmoles (˜11 μg for the repaired construct 2638A 1-180Mut-486) […]. The spotted plates were air dried for 10 min in a laminar flow hood and incubated overnight in a 37° C. environment. Scoring of the cleared spots occurred within 20 h of plating the cells.
(§2) The Plate Lysis assay results (FIG. 3) agree with the turbidity reduction assay. Each of the M23 peptidase dependent or SH3b-truncating constructs showing weak activity on S. aureus strain Newman strain. In addition to the Plate Lysis results in FIG. 3, we have also examined numerous strains with reduced but real lytic activity (Table 1). However, the plate lysis results with the 2638A endolysin constructs are extremely novel in appearance. Plate lysis results are routinely visualized as a discrete cleared spot on a lawn of bacteria after a single overnight of culture. […] In contrast, the 2638A endolysin is unique in that sometimes this cleared zone requires multiple days to appear. […] Thus, there is also a likelihood that the enzyme might work preferentially on late log or stationary phase cells in the plate lysis assay, as the 3 day old culture is likely not growing as quickly as the freshly-plated overnight culture.

S. aureus MN8 Δica = test: as above; type: cell-based
Procedure: as §1, §2

S. aureus Newman ΔtagO = test: as above; type: cell-based
Procedure: as §1, §2

S. aureus Newman ΔdltA = test: as above; type: cell-based
Procedure: as §1, §2

S. aureus Reynolds (CP-) = test: as above; type: cell-based
Procedure: as §1, §2

S. aureus Newman = test: as above; type: cell-based
Procedure: as §1, §2

S. warneri = test: as above; type: cell-based
Procedure: as §1, §2

S. aureus Reynolds (CP8) = test: as above; type: cell-based
Procedure: as §1, §2

S. aureus Tanji 1 = test: as above; type: cell-based
Procedure: as §1, §2

S. aureus Tanji 28 = test: as above; type: cell-based
Procedure: as §1, §2

S. aureus ANG 144 = test: as above; type: cell-based
Procedure: as §1, §2

S. aureus MN8 = test: as above; type: cell-based
Procedure: as §1, §2

S. aureus Tanji 48 = test: as above; type: cell-based
Procedure: as §1, §2

S. aureus NRS 382 (MRSA) = test: as above; type: cell-based
Procedure: as §1, §2

[1] = system: S. aureus Newman srtA::ermB; test: as above; type: cell-based
Procedure: as §1, §2

S. aureus Tanji 26 = test: as above; type: cell-based
Procedure: as §1, §2

S. aureus Tanji 9 = test: as above; type: cell-based
Procedure: as §1, §2

S. aureus Tanji 49 = test: as above; type: cell-based
Procedure: as §1, §2

S. aureus Tanji 31 = test: as above; type: cell-based
Procedure: as §1, §2

S. aureus SA113 = test: as above; type: cell-based
Procedure: as §1, §2

S. aureus 305 = test: as above; type: cell-based
Procedure: as §1, §2

S. aureus ANG 133 = test: as above; type: cell-based
Procedure: as §1, §2

S. aureus Tanji 29 = test: as above; type: cell-based; parameters: key: − = >100 pmol; (+) = very faint lysis zone; + = 100 pmol; ++ = 10 pmol; +++ = 1 pmol
Procedure: as §1
(§3) The Plate Lysis assay results (FIG. 3) agree with the turbidity reduction assay. Each of the M23 peptidase dependent or SH3b-truncating constructs showing weak activity on S. aureus strain Newman strain. In addition to the Plate Lysis results in FIG. 3, we have also examined numerous strains with reduced but real lytic activity (Table 1). However, the plate lysis results with the 2638A endolysin constructs are extremely novel in appearance. Plate lysis results are routinely visualized as a discrete cleared spot on a lawn of bacteria after a single overnight of culture. […]

S. aureus NRS 383 (MRSA) = test: as above; type: cell-based; parameters: key to Susceptibility to lysis by 2638A, day 1: − = >100 pmol; (+) = very faint lysis zone; + = 100 pmol; ++ = 10 pmol; +++ = 1 pmol
Procedure: as §1, §2

S. aureus MN8 ΔsarA = test: as above; type: cell-based; parameters: key to Susceptibility to lysis by 2638A, day 1: − = >100 pmol; (+) = very faint lysis zone; + = 100 pmol; ++ = 10 pmol; +++ = 1 pmol
Procedure: as §1, §2

MRSA strain NRS382 = test: Control of systemic MRSA infection in a murine model; type: in vivo, Staphylococcus aureus
[2] = system: S. aureus strain NRS119 (SA LinR #12; linezolid resistant); test: Plate lysis assay (FIG. 3); type: cell-based; settings: lawn on TSA plates, observed over days
Procedure: as §1, §3

B1: 2638A Endolysin: 486 amino acid staphylococcal phage 2638A endolysin (SEQ ID NO:4), C-terminally 6×His-tagged; M23 peptidase, amidase, SH3b domains (protein)
chain: MLTAIDYLTKKGWKISSDPRTYDGYPKNYGYRNYHENGINYDEFCGGYHRAFDVYSNETNDVPAVTSGTVIEANDYGNFGGTFVIRDANDNDWIYGHLQRGSMRFVVGDKVNQGDIIGLQGNSNYYDNPMSVHLHLQLRPKDAKKDEKSQVCSGLAMEKYDITNLNAKQDKSKNGSVKELKHIYSNHIKGNKITAPKPSIQGVVIHNDYGSMTPSQYLPWLYARENNGTHVNGWASVYANRNEVLWYHPTDYVEWHCGNQWANANLIGFEVCESYPGRISDKLFLENEEATLKVAADVMKSYGLPVNRNTVRLHNEFFGTSCPHRSWDLHVGKGEPYTTTNINKMKDYFIKRIKHYYDGGKLEVSKAATIKQSDVKQEVKKQEAKQIVKATDWKQNKDGIWYKAEHASFTVTAPEGIITRYKGPWTGHPQAGVLQKGQTIKYDEVQKFDGHVWVSWETFEGETVYMPVRTWDAKTGKVGKLWGEIKLEHHHHHH
modifications: C-terminal His6 tag; Mutated Phage 2638a
notes: M23 peptidase, amidase, SH3b domains
- Susceptibility to lysis by 2638A, day 1 (S. aureus NRS 385 (MRSA); day 1): − (− = >100 pmol)
- Susceptibility to lysis by 2638A, day 3+ (S. aureus NRS 385 (MRSA); day 3+): − (− = >100 pmol)
- Susceptibility to lysis by 2638A, day 1 (S. aureus MN8 Δica; day 1): − (− = >100 pmol)
- Susceptibility to lysis by 2638A, day 3+ (S. aureus MN8 Δica; day 3+): ++ (++ = 10 pmol)
- Susceptibility to lysis by 2638A, day 1 (S. aureus Newman ΔtagO; day 1): +++ (+++ = 1 pmol)
- Susceptibility to lysis by 2638A, day 3+ (S. aureus Newman ΔtagO; day 3+): +++ (+++ = 1 pmol)
- Susceptibility to lysis by 2638A, day 1 (S. aureus Newman ΔdltA; day 1): − (− = >100 pmol)
- Susceptibility to lysis by 2638A, day 3+ (S. aureus Newman ΔdltA; day 3+): − (− = >100 pmol)
- Susceptibility to lysis by 2638A, day 1 (S. aureus Reynolds (CP-); day 1): − (− = >100 pmol)
- Susceptibility to lysis by 2638A, day 3+ (S. aureus Reynolds (CP-); day 3+): − (− = >100 pmol)
- Susceptibility to lysis by 2638A, day 1 (S. aureus Newman; day 1): − (− = >100 pmol)
- Susceptibility to lysis by 2638A, day 3+ (S. aureus Newman; day 3+): − (− = >100 pmol)
- Susceptibility to lysis by 2638A, day 1 (S. warneri; day 1): − (− = >100 pmol)
- Susceptibility to lysis by 2638A, day 3+ (S. warneri; day 3+): − (− = >100 pmol)
- Susceptibility to lysis by 2638A, day 1 (S. aureus Reynolds (CP8); day 1): − (− = >100 pmol)
- Susceptibility to lysis by 2638A, day 3+ (S. aureus Reynolds (CP8); day 3+): − (− = >100 pmol)
- Susceptibility to lysis by 2638A, day 1 (S. aureus Tanji 1; day 1): − (− = >100 pmol)
- Susceptibility to lysis by 2638A, day 3+ (S. aureus Tanji 1; day 3+): − (− = >100 pmol)
- Susceptibility to lysis by 2638A, day 1 (S. aureus Tanji 28; day 1): − (− = >100 pmol)
- Susceptibility to lysis by 2638A, day 3+ (S. aureus Tanji 28; day 3+): − (− = >100 pmol)
- Susceptibility to lysis by 2638A, day 1 (S. aureus ANG 144; day 1): − (− = >100 pmol)
- Susceptibility to lysis by 2638A, day 3+ (S. aureus ANG 144; day 3+): − (− = >100 pmol)
- Susceptibility to lysis by 2638A, day 1 (S. aureus MN8; day 1): − (− = >100 pmol)
- Susceptibility to lysis by 2638A, day 3+ (S. aureus MN8; day 3+): ++ (++ = 10 pmol)
- Susceptibility to lysis by 2638A, day 1 (S. aureus Tanji 48; day 1): − (− = >100 pmol)
- Susceptibility to lysis by 2638A, day 3+ (S. aureus Tanji 48; day 3+): + (+ = 100 pmol)
- Susceptibility to lysis by 2638A, day 1 (S. aureus NRS 382 (MRSA); day 1): − (− = >100 pmol)
- Susceptibility to lysis by 2638A, day 3+ (S. aureus NRS 382 (MRSA); day 3+): − (− = >100 pmol)
- Susceptibility to lysis by 2638A, day 1 ([1]; day 1): − (− = >100 pmol)
- Susceptibility to lysis by 2638A, day 3+ ([1]; day 3+): − (− = >100 pmol)
- Susceptibility to lysis by 2638A, day 1 (S. aureus Tanji 26; day 1): − (− = >100 pmol)
- Susceptibility to lysis by 2638A, day 3+ (S. aureus Tanji 26; day 3+): + (+ = 100 pmol)
- Susceptibility to lysis by 2638A, day 1 (S. aureus Tanji 9; day 1): − (− = >100 pmol)
- Susceptibility to lysis by 2638A, day 3+ (S. aureus Tanji 9; day 3+): − (− = >100 pmol)
- Susceptibility to lysis by 2638A, day 1 (S. aureus Tanji 49): − (− = >100 pmol)
- Susceptibility to lysis by 2638A, day 1 (S. aureus Tanji 31; day 1): − (− = >100 pmol)
- Susceptibility to lysis by 2638A, day 3+ (S. aureus Tanji 31; day 3+): − (− = >100 pmol)
- Susceptibility to lysis by 2638A, day 1 (S. aureus SA113; day 1): + (+ = 100 pmol)
- Susceptibility to lysis by 2638A, day 3+ (S. aureus SA113; day 3+): ++ (++ = 10 pmol)
- Susceptibility to lysis by 2638A, day 1 (S. aureus 305; day 1): − (− = >100 pmol)
- Susceptibility to lysis by 2638A, day 3+ (S. aureus 305; day 3+): − (− = >100 pmol)
- Susceptibility to lysis by 2638A, day 1 (S. aureus ANG 133; day 1): − (− = >100 pmol)
- Susceptibility to lysis by 2638A, day 3+ (S. aureus ANG 133; day 3+): − (− = >100 pmol)
- Susceptibility to lysis by 2638A, day 1 (S. aureus Tanji 29): (+)
- Susceptibility to lysis by 2638A, day 1 (S. aureus NRS 383 (MRSA); day 1): (+)
- Susceptibility to lysis by 2638A, day 3+ (S. aureus NRS 383 (MRSA); day 3+): ++ (++ = 10 pmol)
- Susceptibility to lysis by 2638A, day 1 (S. aureus MN8 ΔsarA; day 1): (+)
- Susceptibility to lysis by 2638A, day 3+ (S. aureus MN8 ΔsarA; day 3+): +++ (+++ = 1 pmol)
- % Survival (MRSA strain NRS382; 0 hours, Balb/c mice, I.P. 4×10^7 CFU, treated 30 min post infection: 2638A 200 μg/mouse I.P., Vancomycin 375 μg/mouse s.c., Oxacillin 1250 μg/mouse s.c.): 100%
- % Survival (MRSA strain NRS382; 4 hours, same model and doses): 100%
- % Survival (MRSA strain NRS382; 8 hours, same model and doses): 100%
- % Survival (MRSA strain NRS382; 12 hours, same model and doses): 100%
- % Survival (MRSA strain NRS382; 16 hours, same model and doses): 100%
- % Survival (MRSA strain NRS382; 20 hours, same model and doses): 100%
- % Survival (MRSA strain NRS382; 24 hours, same model and doses): 100%
- % Survival (MRSA strain NRS382; 28 hours, same model and doses): 100%
- % Survival (MRSA strain NRS382; 32 hours, same model and doses): 100%
- % Survival (MRSA strain NRS382; 36 hours, same model and doses): 100%
- % Survival (MRSA strain NRS382; 40 hours, same model and doses): 100%
- % Survival (MRSA strain NRS382; 44 hours, same model and doses): 100%
- % Survival (MRSA strain NRS382; 48 hours (end of the experiment), same model and doses): 100%
- septicemia score at the end of the experiment (MRSA strain NRS382; 48 hours, score 0-5 per Table 4): 0
- Mean NRS382 Titer in the Blood (MRSA strain NRS382; Recovered 48 hr post infection from surviving mice, same doses): 0.8 ± 1.9 × 10^1 CFU/ml
- appearance and persistence of the cleared zone in plate lysis [2]: very broad, ill-defined region of clearing that grows with time, up to four days
